{
  "source": "paper PMC3343632",
  "about": "(Nature cell biology, 2012)",
  "proteins": {"B1": {"name": "GFP-tagged tailless kinesin-1 motor, taillessKhc::GFP (1-849) (domain or fragment, UniProt P17210 1-849, looked up)", "chain": "MSAEREIPAEDSIKVVCRFRPLNDSEEKAGSKFVVKFPNNVEENCISIAGKVYLFDKVFKPNASQEKVYNEAAKSIVTDVLAGYNGTIFAYGQTSSGKTHTMEGVIGDSVKQGIIPRIVNDIFNHIYAMEVNLEFHIKVSYYEIYMDKIRDLLDVSKVNLSVHEDKNRVPYVKGATERFVSSPEDVFEVIEEGKSNRHIAVTNMNEHSSRSHSVFLINVKQENLENQKKLSGKLYLVDLAGSEKVSKTGAEGTVLDEAKNINKSLSALGNVISALADGNKTHIPYRDSKLTRILQESLGGNARTTIVICCSPASFNESETKSTLDFGRRAKTVKNVVCVNEELTAEEWKRRYEKEKEKNARLKGKVEKLEIELARWRAGETVKAEEQINMEDLMEASTPNLEVEAAQTAAAEAALAAQRTALANMSASVAVNEQARLATECERLYQQLDDKDEEINQQSQYAEQLKEQVMEQEELIANARREYETLQSEMARIQQENESAKEEVKEVLQALEELAVNYDQKSQEIDNKNKDIDALNEELQQKQSVFNAASTELQQLKDMSSHQKKRITEMLTNLLRDLGEVGQAIAPGESSIDLKMSALAGTDASKVEEDFTMARLFISKMKTEAKNIAQRCSNMETQQADSNKKISEYEKDLGEYRLLISQHEARMKSLQESMREAENKKRTLEEQIDSLREECAKLKAAEHVSAVNAEEKQRAEELRSMFDSQMDELREAHTRQVSELRDEIAAKQHEMDEMKDVHQKLLLAHQQMTADYEKVRQEDAEKSSELQNIILTNERREQARKDLKGLEDTVAKELQTLHNLRKLFVQDLQQRIRKNVVNEESEEDGGSLA"}},
  "target": "the molecule itself",
  "assay": "single-molecule TIRF microscopy with stepwise photobleaching",
  "data": [
    {"protein": "B1", "values": [
      {"measurement": "stoichiometry N", "value": 2}
    ]}
  ]
}
